Key:
Test in all cases: SPR (BIACORE 3000), hGLP-1R/GST amine-coupled to CM5 chip, 1:1 Langmuir fit
[1] = molecular target: Native exendin-4 (exenatide: BYETTA)
Description: (§1) The binding activity of the GLP-1 receptor and the insulinotropic peptide derivative with a modified N-terminal charge were measured using a surface plasmon resonance (SPR) apparatus (BIACORE 3000, GE Healthcare).
(§2) The GLP-1 receptor was expressed from CHO-DG44 cells in hGLP-1R/GST form. The expressed hGLP-1R/GST was immobilized to a CM5 chip by amine coupling. To the hGLP-1R/GST-immobilized CM5 chip, the insulinotropic peptide derivatives with a modified N-terminal charge were diluted by concentration and then added to determine the binding activity with the GLP-1 receptor.

[2] = molecular target: desamino-histidyl-exendin-4 (DA-exendin-4)
Description: as §1, §2

[3] = molecular target: beta-hydroxy imidazopropionyl-exendin-4 (HY-exendin-4)
Description: as §1, §2

[4] = molecular target: imidazoacetyl-exendin-4 (CA-exendin-4)
Description: as §1, §2

[5] = molecular target: DA-exendin-4-propyl-amide
Description: as §1, §2

B1: hGLP-1R/GST (receptor)
chain: RPQGATVSLWETVQKWREYRRQCQRSLTEDPPPATDLFCNRTFDEYACWPDGEPGSFVNVSCPWYLPWASSVPQGHVYRFCTAEGLWLQKDNSSLPWRDLSECEESKRGERSSPEEQLLFLY
notes: Expressed from CHO-DG44 cells and immobilized on a CM5 chip by amine coupling; also called GLP-1 receptor; GLP-1 receptor in hGLP-1R/GST form; not shown: GST (glutathione S-transferase) fusion partner
Kd [1]: 1.4 nM
koff [1]: 0.000526 s⁻¹
kon [1]: 370000 M⁻¹ s⁻¹
Kd [2]: 32.2 nM
koff [2]: 0.00365 s⁻¹
kon [2]: 113000 M⁻¹ s⁻¹
Kd [3]: 42.7 nM
koff [3]: 0.00383 s⁻¹
kon [3]: 90000 M⁻¹ s⁻¹
Kd [4]: 26.3 nM
koff [4]: 0.00315 s⁻¹
kon [4]: 120000 M⁻¹ s⁻¹
Kd [5]: 32.6 nM
koff [5]: 0.00335 s⁻¹
kon [5]: 104000 M⁻¹ s⁻¹
